≈ marks a conversion by molar mass, not a printed value. Where two headings read alike, the source gives them in different places. Peptide text beside a SMILES is read from it. * marks the point of attachment. Paclitaxel(2'-O-succinyl) = CC(=O)O[C@H]1C(=O)[C@@]2(C)[C@H]([C@H](OC(=O)c3ccccc3)[C@]3(O)C[C@H](OC(=O)[C@H](OC(=O)CCC(=O)*)[C@@H](NC(=O)c4ccccc4)c4ccccc4)C(C)=C1C3(C)C)[C@]1(OC(C)=O)CO[C@@H]1C[C@@H]2O
Columns and labels:
[1] = Solubility in water (HPLC, saturated solution); assay type: physicochemical; conditions: for solubility thermodynamic at 15 min: in water (ultrapure), HPLC; for Fold Increase: solubility in water of the conjugate versus the free drug (DOC or PTX)
Procedure: 25, 50, 100, 200, 300, and 400 µL of the above stock solutions were precisely measured, added into 1 mL volumetric flasks, and diluted to the mark with methanol to obtain a series of standard solutions with concentrations of 25, 50, 100, 200, 300, and 400 µg/mL, respectively. The peak areas of the series of standard solutions were detected by HPLC (mobile phase: 0.065% TFA in water + 0.05% TFA; chromatographic column: YMC-Triart C18; wavelength: 220 nm) to construct a concentration-peak area standard curve, where the abscissa represents concentration and the ordinate represents peak area.
The peak area of the sample was detected by HPLC, and its saturation in water was calculated through the concentration-peak area standard curve. Table 6 Results of detection of solubility of polypeptide conjugates in water

[2] = tested on: HCCLM3 (human highly metastatic hepatocellular carcinoma cells); test: Tumor cell proliferation inhibition (CCK8); assay type: cell-based; conditions: IC50 of free drug / IC50 of polypeptide conjugate
Excerpt: (§1) Human highly metastatic hepatocellular carcinoma cells HCCLM3, human highly metastatic gastric cancer cells MKN45, human gastric cancer cells BGC-823 and MGC-803, non-small cell lung cancer cells A549, human pancreatic cancer cells ASPC-1, human colon cancer cells LoVo, human ovarian cancer cells A2780, human cervical cancer cells SiHa, human malignant melanoma cells SK-mel-2 and M14, human osteosarcoma cells Saos-2, human bladder transitional cell carcinoma cells T24, human brain glioblastoma cells U87-MG, human lymphoma cells Raji, and human epidermal cancer cells A431 were selected for the experiment. Among them, HCCLM3 cells, MKN45 cells, BGC-823 cells, MGC-803 cells, A431 cells and A549 cells were provided by Nanjing Anji Biotechnology Co., Ltd., and the other cells were provided by Nanjing Ouji Pharmaceutical Technology Service Co., Ltd.
(§2) The aforementioned tumor cells were preserved in a medium containing 10% fetal bovine serum and 1% penicillin-streptomycin, and incubated at 37°C with 5% CO2 and 95% humidity. The aforementioned tumor cells were cultured in T75 flasks with an experimental cell density of 80%. The aforementioned tumor cell lines were mycoplasma-negative.
(§3) Tumor cells in the logarithmic growth phase were taken for the experiment. The cells were digested, counted, and prepared into a cell suspension with a concentration of 1×10^5 cells/mL, which was then inoculated into a 96-well plate (100 µL per well). The 96-well plate was incubated in a 37°C, 5% CO2 incubator for 24 hours. […] After incubating the plate in the incubator for 72 h, the cell morphology of each group was observed under a microscope. Then, 10 µL of CCK8 solution (Nanjing Enjing Biotechnology Co., Ltd.) was added to each well, and the plate was further incubated in the cell incubator for 4 h. After incubation, the absorbance was measured at 450 nm, and the tumor cell proliferation inhibition rate was calculated. The efficiency ratio was the ratio of the IC50 value of the free drug to that of the polypeptide conjugate. Table 1 Tumor cell proliferation inhibition rates of polypeptide conjugates

[3] = tested on: A549 (non-small cell lung cancer cells); test: Tumor cell proliferation inhibition (CCK8); assay type: cell-based; conditions: IC50 of free drug / IC50 of polypeptide conjugate
Excerpt: as §1, §2, §3

[4] = Metabolism in liver microsomes; assay type: in vitro ADME; conditions: for k / microsomal CLint at 1 µM / half-life at 1 µM: NADPH, 37°C; for microsomal CLint at 1 µM: read-out: CLint(mic); for half-life at 1 µM: read-out: t½
Procedure: 1.85 mg of DOC-AI (or 1.81 mg of PTX-AI) was precisely weighed, 1 mL of DMSO was added, dissolved and mixed well to obtain 1 mM stock solution. 1 mM stock solution was diluted with methanol to 100 µM working solution for sample incubation. 12.5 µL of 20 mg/mL liver microsomes (mouse-derived, Shanghai Quanyang Trading Co., Ltd., batch number: MIC255038; rat-derived, Shanghai Quanyang Trading Co., Ltd., batch number: MIC254034; dog-derived, Shanghai Quanyang Trading Co., Ltd., batch number: MIC257015; monkey-derived, Ruide Liver Disease Research (Shanghai) Co., Ltd., batch number: SYXS; human-derived, Shanghai Quanyang Trading Co., Ltd., batch number: 1210097), 432.5 µL of 100 mM PBS, 25 µL of 20 mM NADPH, and 25 µL of 100 mM MgCl2 were added into a 96-well plate, and after mixing, pre-incubated at 37°C for 5 min. 5 µL of 100 µM working solution was added to the 96-well plate to initiate the reaction. At the set time points, 50 µL of the reaction sample was taken and placed in an EP tube containing 100 µL of ice-cold acetonitrile, vortexed for inactivation, and stored at -90°C for testing. […] Table 4 Results of detection of DOC-AI metabolism in liver microsomes

[5] = Human liver microsomes 0.5 mg/mL
[6] = Monkey liver microsomes 0.5 mg/mL
[7] = Mouse liver microsomes 0.5 mg/mL

Row | SMILES | solubility thermodynamic at 15 min [1] [µg/mL] | Fold Increase [1] | Efficiency Ratios [2] | Efficiency Ratios [3] | CLint(liver) ([4]; Dog liver microsomes 0.5 mg/mL) [mL/min/kg] | Clearance Rate Level ([4]; Dog liver microsomes 0.5 mg/mL) | Hepatic Extraction Ratio (EH) ([4]; Dog liver microsomes 0.5 mg/mL) | k ([4]; Dog liver microsomes 0.5 mg/mL) | microsomal CLint at 1 µM ([4]; Dog liver microsomes 0.5 mg/mL) [µL/min/mg] | half-life at 1 µM ([4]; Dog liver microsomes 0.5 mg/mL) [min] | CLint(liver) [4, 5] [mL/min/kg] | Clearance Rate Level [4, 5] | Hepatic Extraction Ratio (EH) [4, 5] | k [4, 5] | microsomal CLint at 1 µM [4, 5] [µL/min/mg] | half-life at 1 µM [4, 5] [min] | CLint(liver) [4, 6] [mL/min/kg] | Clearance Rate Level [4, 6] | Hepatic Extraction Ratio (EH) [4, 6] | k [4, 6] | other results
1 | CC(=O)O[C@@]12CO[C@@H]1C[C@H](O)[C@@]1(C)C(=O)[C@H](O)C3=C(C)[C@@H](OC(=O)[C@H](OC(=O)CCC(=O)N[C@@H](CCCNC(=N)N)C(=O)N[C@@H](CO)C(=O)N4CCC[C@H]4C(=O)N[C@@H](Cc4ccc(O)cc4)C(=O)N[C@@H](C)C(=O)N[C@@H](CC(N)=O)C(=O)N[C@@H](CO)C(=O)O)[C@@H](NC(=O)OC(C)(C)C)c4ccccc4)C[C@@](O)([C@@H](OC(=O)c4ccccc4)[C@H]21)C3(C)C [DOC-AI] | 4430 (≈ 2630 µM) | 1.62×10^5 | 1.63 | 1.39 | 66.2 | Medium | 0.682 | 0.0230 | 45.9 | 30.2 | 23.4 | Medium | 0.531 | 0.0130 | 26 | 53.3 | 140 | High | 0.763 | 0.0520 | microsomal CLint at 1 µM [4, 6]: 104 µL/min/mg; half-life at 1 µM [4, 6]: 13.3 min; CLint(liver) [4, 7]: 324 mL/min/kg; Clearance Rate Level [4, 7]: High; Hepatic Extraction Ratio (EH) [4, 7]: 0.783; k [4, 7]: 0.0410; microsomal CLint at 1 µM [4, 7]: 81.9 µL/min/mg; half-life at 1 µM [4, 7]: 16.9 min; CLint(liver) ([4]; Rat liver microsomes 0.5 mg/mL): 108 mL/min/kg; Clearance Rate Level ([4]; Rat liver microsomes 0.5 mg/mL): Medium; Hepatic Extraction Ratio (EH) ([4]; Rat liver microsomes 0.5 mg/mL): 0.662; k ([4]; Rat liver microsomes 0.5 mg/mL): 0.0301; microsomal CLint at 1 µM ([4]; Rat liver microsomes 0.5 mg/mL): 60.1 µL/min/mg; half-life at 1 µM ([4]; Rat liver microsomes 0.5 mg/mL): 23.1 min
2 | CC(=O)O[C@H]1C(=O)[C@@]2(C)[C@H]([C@H](OC(=O)c3ccccc3)[C@]3(O)C[C@H](OC(=O)[C@H](OC(=O)CCC(=O)N[C@@H](CCCNC(=N)N)C(=O)N[C@@H](CO)C(=O)N4CCC[C@H]4C(=O)N[C@@H](Cc4ccc(O)cc4)C(=O)N[C@@H](C)C(=O)N[C@@H](CC(N)=O)C(=O)N[C@@H](CO)C(=O)O)[C@@H](NC(=O)c4ccccc4)c4ccccc4)C(C)=C1C3(C)C)[C@]1(OC(C)=O)CO[C@@H]1C[C@@H]2O [PTX-AI] ({Paclitaxel(2'-O-succinyl)}-RSPYANS-OH) | 5.56 (≈ 3.21 µM) | 46.33 | 3.70 | 2.05 | 81.4 | High | 0.725 | 0.0283 | 56.6 | 24.5 | 26.6 | Medium | 0.562 | 0.0148 | 29.5 | 46.9 | 148 | High | 0.772 | 0.0548 | microsomal CLint at 1 µM [4, 6]: 110 µL/min/mg; half-life at 1 µM [4, 6]: 12.7 min; CLint(liver) [4, 7]: 405 mL/min/kg; Clearance Rate Level [4, 7]: High; Hepatic Extraction Ratio (EH) [4, 7]: 0.818; k [4, 7]: 0.0511; microsomal CLint at 1 µM [4, 7]: 102 µL/min/mg; half-life at 1 µM [4, 7]: 13.6 min; CLint(liver) ([4]; Rat liver microsomes 0.5 mg/mL): 122 mL/min/kg; Clearance Rate Level ([4]; Rat liver microsomes 0.5 mg/mL): Medium; Hepatic Extraction Ratio (EH) ([4]; Rat liver microsomes 0.5 mg/mL): 0.689; k ([4]; Rat liver microsomes 0.5 mg/mL): 0.0339; microsomal CLint at 1 µM ([4]; Rat liver microsomes 0.5 mg/mL): 67.8 µL/min/mg; half-life at 1 µM ([4]; Rat liver microsomes 0.5 mg/mL): 20.4 min

— patent publication EP4725507A1, “POLYPEPTIDE CONJUGATE, PHARMACEUTICAL COMPOSITION CONTAINING POLYPEPTIDE CONJUGATE AND USE THEREOF” (Nanjing Anji Biotechnology Co., Ltd., priority 2023, dated 2025)
